Measurements: the domain aggregation screens of Martell et al. (2025)

Assay: soluble fraction after stress (log2 fold change); higher = more stays soluble; pooled small domains, quantitative proteomics
Details: stress: 50 degC
How it was run: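 Custom libraries of small protein domains were pooled and measured in a high-throughput format, with quantitative proteomics as the read-out. Each library was stressed at 50°C. The value is the log2 fold change in the amount of each protein that stays soluble after stress, used as a measure of aggregation propensity; higher values mean more of the protein stays soluble.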

Sequence	soluble fraction (log2)
HMIMNDIQAKVLEIAETKDLGSITYYRLSKMLGVDHPYRVKYAIDKLIEKGLLTAKSDGSITKAI	-0.601
HMGAGDKQAQQASLMQIIALQKEGMALGLVEPKHLYHSFSKMIENAGFKDVQSFAVDPSTQQ	-0.0552
HMSYSYIYNYALKVKMDISSTGGKKPYAYYYYDHSYKLAEEILSLSEETESIELQNKYDELKDFYENP	-1.32
HMIEGETPEQTMERVSKDPEIVQILQDPVMQGILAQARENPAALQDHMKNPEVYKKINMLIAAGVIRT	0.0669
HMSVRPMVEILRVVGSPSPVWVTWARNRAAWLYETGIRPQQRLRMADGTEVLIRLVGEFAHILVVGG	-0.31
HMKTGNPYAQRNTADMYNYGRGIEKDSYLAFVWYFAAYKQGNDNAKPQIDSITASGHLSPNQQLHAKIE	-0.464
HMQNLSELAYVNLRDALMQGQMKPGEELPLRPISRSFGISATPMREALLRLVTESALEMDSRGRISVP	-0.341
HMLTANPEEVVNRLTSAGEVGVRPLLDVDDPINAISTLLAIREDVYKQFAQFDTVGKSPSEIAHEIDDFL	0.00575
HMSDFSSNLRRLRKRAGLSQDALAEKLSVARQTVSSWERGNSYPDLDMLVRISDALATDPNELLYPN	-0.00275
HMDLDSGVAVLRTLMSQHNLQTDDFQNEIGGKSMVSMILNGTRKLSKNHIQALSGRFNLSPALFF	-0.962
HMGESFPYVAYATDSVRLRARPSSSATILTVIRKGDAVLITGADGSYKIVEYEGRKGYVVSAFLSSQET	-0.857
HMQYTQKTMYINDSYVNLRKSASTSSDIIMVVELNTKLTVIGEDGDWYKVKTSSGNAYVLKTLLSNEKKET	-0.108
HMSWEELLEHLEKAAERGEEVRIAGVTLHDEEDFKRALRWLKEWL	-1.93
HMKGILVPASSIISDGDKNYVWTVEKGKAKKVEVTLGNADAENQEISSGLTKDSKVITNPTDSLKDGQEV	0.162
HMDSEKVLTNLKEELVLQLSNIEPYGYVPSQYWYSKVQRVQSVQELGKYVDGDLEAFVMKYAEDWESQK	-0.191
HMKKQLTISDGDWAGKVSSMLEDMGVINSASEFDKYLSDNGYSNVIKSGTYDVSPEDTFQELAEKIT	0.414
HMTDAEQHEALLFKQVVDGLPQTLRDTFVLSRHAGMTYAEISAHTGTPIKTVESRMAKALELIAQRMR	-0.67
HMKDTNENLMKMLALLIHAAKIDENYSDEEKELIVNFAEMSSKENLNREQILSIIKSAEEYE	-0.702
HMRQTGWVTADSLNVRARPSLQAERVEKVTYGQQVQIMFKQGQWYQIATENGKIGWVSSEYIAAVSP	-0.0654
HMNQKVRQLLSQAQAEMERKNYKQAIKLLDQALAIEPHSGELHFMKGYAWMSMGEFEKALESLYEARNYA	-0.399
HMHDLGEQIIEKLRASGGISTLTDKSDPDAIYRQFKVSKKKYKQALGTLYKSRRITLAPNQIKLA	-0.129
HMPTAGYMTVTPDRVKEGQQFLATLRPPYVLKADGLAAGKGVLILPELEEAQRELEEMLGGFLGELSVNR	-0.0813
HMHGYLSDPAARLIRARRKTLSIRITQEGNLEIRAPLGMPKGEIEAFLKEKAQWIETHRAKVLAEYA	-2.24
HMNMEPNWLKWAKQLAALAQNGLTYSDNPYEIERYEHIRRIAAEMMAEGFELDTKTILELFPREKG	-2.05
HMPELPPHELLRALMVEHDIKQSELPEVGPQPVVSDVLAGKRALNLRQVAALAARFHVPMEVFT	-0.153
HMIFSIIPGQIRLTKMEIADGYLVLYGFTPSKEIYNLHLNPALKSIFTSSETSFIPVSGGLKFMSTNKL	-1.78

Sequence	soluble fraction (log2)
HMGMAGILDSARMASFIQEKLGYGGGQIRASVMGGHGDDMVPLPRYSTVAGVPLSDVLTQNEIDEMFAQ	-0.0615
HMNALREVNTSILNVRSGAGTNYSKIGSLTQATRVSVISESNGWSKINYNGKVGYVSSQYLS	-0.502
HMEEEDELALFLREERKNYDLTLTDVHEKTGIPQKVLKEFQWGDAQLTDRQRYTLTQYVEEAREYFQENA	0.0369
HMKNLKPSTEVILKELVKRYPDQTEFRKQQIVDVGQSFGYKGKDYGPIFDADNRVKIGTYDLAGLIVPLQR	-0.0461
HMKGTLPEMITSREEVVLKFMVNGWDAKRIASELDISVLTVRKHIANIYEKLHVQSKAEIISMAHQQKWFN	-1.52
HMIGAKVLVNGQLHRDSYGEGPGQTESNATRLVNYINMKGSHPYHVTTLDGGWRGWVTADSVQV	0.223
HMPEFKDMLKFFRMREHLSQSELAEKLGISASTVSMYEVGRRQPDFETEEKIADFFNTDLNTLRG	-0.39
HMHMSLTEKYKELTDLAVSAGVQNLNVREQDGVLYVDGDASGAVKQQLWDTYGKLDPDYTSGDLVLNI	0.0615
HMSDIYSLFERELGRTLSSYEYEIIGKWIEKGVSEDTIKRALKEAILNGVTNFKYIDKIIYDWSKN	-0.499
HMRKDYTVLYSAVNAEEATEIVSKLQESGVAYQYKDNGDVLVDKKQVDKVRAQLAQEGYPKS	0.164
HMATYETEVISGVNLRSAPNTSASVYRLLSKGEDIHVIQKVNDYWLKVQTKDGKIGYISASSKYTNYIA	-0.29
HMEVPNLIGMTDKDLQRTYFQLPIEAAGDGSVVIKQLPEPGEKVKEGSVIRVLLG	0.171
HMYEVVPNMRGLTYNQATAALAAAGLKVELSDSIYDEHTQPGTVLDQSPRPNTKVKPNRVVYLTVNAF	-0.739
HMTPFVINVDRHGAVIINEKTVDIDEAVVLARQERSQGKSILLAGDKKAPYEAIIRVLDALKQAG	-0.185
HMKKKSYIVSFATDEDAQRFAREGFEVISLSGRQITVSLKGEMMPLVKALGSYQVVGLETVA	-0.19
HMSVADNALSRQAIESRIALFIQNEDPNHPRSDADIQKELAQAGVVISRRAITKYRNHLHIPSASLRRR	-1.03
HMEESEMIAFATVAHRIVGKPVEAVMRSYRNRDNIPADIAAIVSSKFTFSVTMAEASYRNPKKSYQVNSII	-0.00943
HMSADKAEAAEASLKSFNLRLQAAAMEAGKTFAPVTADQYAEYKAAWGTYIRKGIEGLSESEKKTINVG	-0.03
HMYSRQRDLILKALRENVVHPTADFIYTVLKEKEPNLSLATVYRNLNLLANEGIIRKIEGLDGVAHFDH	-1.46
HMEAPMPIFWRPQFRIGHDDIDADHRYLILLINTVELVLRFPDDPRNVELALTELRRYAEDHFEREER	-0.161
HMRDPLNTGFRQTLKDIVNSLPKNELYSPGVREEYIYPKIGVTSLGMEASMVLNGLISSRRKNIELKEKN	0.447
HMEVLPLHQVKLKYAEADTILIALKSAQSMLSPRGQLLADNRSQQIFVYDDEAHTATLIEAIKHLDQPL	-0.0429
HMNFSRQREIIYEQVRNFPVHPTAEEVYRALKNDNPNLSLGTVYRNLNQLSEAGMLLKIPIADGSDRFDGR	-0.492
HMRIYTKDEYLAELSRYLHKLPQDDYESAMAYFREYFEEAGPENEAQAMRDLGTPKEAASEILQNLLH	-0.305
HMQSITAGDKVRVKNYTVSGGKKRGKVYGGAGTFVVYYEKYDVISVTGDRVVIGIGKAVTAAVHIDDLEK	-1.15
HMEKRLDYTFGLNKEQLLYLTKSIKDGDFYNVSFIDGTEKKLNRVGSTKEVHKYVNFLMTNDGIVKK	0.0518

Sequence	soluble fraction (log2)
HMVMRHTVEHDAELLAVLRLMYPASSSTKLRKMLTQGRVLVNDDVVHRAKHGVASGDTVDVIVRQRAE	-1.03
HMQTQYIVDTKTTLLVRTGPGKSNSQFGRLKNGETINVYAIKNGWAEISYNGKTGYVSEQYIKLA	-3.12
HMSLMLYVEDVDTAFKKAIELGATEIRPVHDQFYGDRAGTLQDPFGHIWIIGTHKEDVSDEELNNRIGNI	-0.0131
HMISAVDLMAARRKIEAGITNLQPGQAFTLPNKVGWVKRMTGGSYFIQGNGGYTASVRTISEAIQAAAMLL	-0.394
HMTDTSFPRLGAPEEELLSFLAKWEIDAEDAHYTKFSLYYQSTGKMMRDWKATWRAWKERQSELNAQR	-1.68
HMLPGVPVVAGKTQSAATRILKAAGYAVSVVREEAFDGVTGTVLRTSPEAGSPLAPGSRVTLVVLQVV	-0.27
HMTANTQVENIRLELQRYMDEHGISQVTVARGIGKTHPVISQFLNNKYPGDVEEVARAIESWLTKQHEKAA	-0.0876
HMDSVEMFSPILGMNANMDLDTLTQTRDKLLEKYKDDEQLIGLVNKTYDYFNEILLKQFLIEELEKNE	-0.153
HMNKEVDLPNFVGMTKENAQAQADKIKIKLEFEEEYSSDVEEGKIISQNPEYKENYKIKEKSTVSLKI	0.118
HMTKSSAYLSAEKLINKKQYSDAIVKLNDALVTDSKNADIYNYLGFSHRKLGKMEDAAFFYNKALE	0.219
HMKEAISIYPNPVKDILTIRGMDETSGVSFKLYDVTGNLLLESTHSELDMSGLNRGVYFLDIAGDVRKVVK	0.0696
HMLDKKKHLEQGRKIIEDQLAKYKIQPSFDTLKKLSAYYGLNNKEQLYAQVGMGFLELENLDEILQ	≥ 0.62
HMEPKQIEVPNLVGISSAAARQTLSALGLHAVVKDSIWSETERIDTVLEQNPAGGALIKPEGTVYLRVSR	0.033
HMGDTLEIVVIYSNKQKAEEAVNNLKGKFEDLGYNFAIITVDTSKITQLAMESSIQYIEFPKSFYFSD	-1.64
HMTSLAGIERFLASGAIAGVGEAMAHRLVQKFGKETLEIIEKKPSRLTEVAGVGKKTAAKIHASYMEK	-0.106
HMVTTADIILEFYSRNPNATLTQAAQHVARATGTTYSRQAISAQLKRLEVAGLVERNGHVTV	-0.393
HMSQIAENNQKYVGTIQKVLVEGTSKNNDDMLTGRTDSNKVVIFEGDKKLIGNMVELKIVSEHMWYLKGEL	-0.0348
HMANTAKVNVDTANLRETADENSKILKQLSLNDNLEVVEETGDWYKVKNSNVTGYVRKDLVTVEN	0.371
HMKELTELIEKIKLRRLELGLSYQELSDLTGINKSTLQRYETGFIKKVPINQVQIIAKALNVTPGYLMG	-0.28
HMTPVFGEEETVLQAAVRGIISDTDQWTMEAEAKSMLNQLGFSDYEEKMAHMSGGQKKRVALVNALLTP	0.0128
HMSQDVLLKRSGDQIEVKITEVGEDYLKYKKKGFENGPDFKINTSDVFMVTFANGEKMMFEES	0.0105
HMYSVVGKKGIVIEDINYSTGTGQIKSEGEVWSAKTNEQINIPKGTEIEIESIDGVKVIVKPL	0.0184
HMSGPMVPNVVGLSEEMARALLSDYSITIKHAHDGVIPKDRVASQLPLATTHAKVGSSVVLTIS	-0.354
HMTDTDVLSSRLSALSSGRTSAVRLRDGVLSLVLDVGGLSIEARKAMTTAIESTARATPGVEAVRIAET	-0.0141
